One data set concerns the target ChsB1 (Mycobacterium tuberculosis, UniProt O53547).
Substrate in data set [1]: CCCCC/C=C/C(=O)SCCNC(=O)CCNC(=O)[C@H](O)C(C)(C)COP(=O)(O)OP(=O)(O)OC[C@H]1O[C@@H](n2cnc3c(N)ncnc32)[C@H](O)[C@@H]1OP(=O)(O)O
As to the kind of experiment: purified protein. The settings on record: pH 7.4; 25.0 °C.

Substrate in data set [2]: C[C@H](/C=C/C(=O)SCCNC(=O)CCNC(=O)[C@H](O)C(C)(C)COP(=O)(O)OP(=O)(O)OC[C@H]1O[C@@H](n2cnc3c(N)ncnc32)[C@H](O)[C@@H]1OP(=O)(O)O)[C@H]1CC[C@H]2[C@@H]3CCC4=CC(=O)CC[C@]4(C)[C@H]3CC[C@]12C
As to the kind of experiment: purified protein. The settings on record: pH 7.4; 25.0 °C.

Substrate in data set [3]: CC(=CCC[C@@H](C)[C@H]1CC[C@H]2[C@@H]3CCC4=CC(=O)CC[C@]4(C)[C@H]3CC[C@]12C)C(=O)SCCNC(=O)CCNC(=O)[C@H](O)C(C)(C)COP(=O)(O)OP(=O)(O)OC[C@H]1O[C@@H](n2cnc3c(N)ncnc32)[C@H](O)[C@@H]1OP(=O)(O)O
Description: purified protein. The note with it: pH 7.4; 25.0 °C.

Substrate in data set [4]: C[C@@H]([C@H]1CC[C@H]2[C@@H]3CCC4=CC(=O)CC[C@]4(C)[C@H]3CC[C@]12C)[C@@H](O)CC(=O)SCCNC(=O)CCNC(=O)[C@H](O)C(C)(C)COP(=O)(O)OP(=O)(O)OC[C@H]1O[C@@H](n2cnc3c(N)ncnc32)[C@H](O)[C@@H]1OP(=O)(O)O
Description: purified protein. The settings on record: pH 8.5; 25.0 °C.

Substrate in data set [5]: C[C@H](C(=O)CC(=O)SCCNC(=O)CCNC(=O)[C@H](O)C(C)(C)COP(=O)(O)OP(=O)(O)OC[C@H]1O[C@@H](n2cnc3c(N)ncnc32)[C@H](O)[C@@H]1OP(=O)(O)O)[C@H]1CC[C@H]2[C@@H]3CCC4=CC(=O)CC[C@]4(C)[C@H]3CC[C@]12C
As to the kind of experiment: purified protein. The note with it: pH 8.5; 25.0 °C.

Substrate in data set [6]: NC(=O)c1ccc[n+]([C@@H]2O[C@H](COP(=O)(O)OP(=O)(O)OC[C@H]3O[C@@H](n4cnc5c(N)ncnc54)[C@H](O)[C@@H]3O)[C@@H](O)[C@H]2O)c1
Description: purified protein. The settings on record: pH 8.5; 25.0 °C; varied: cofactor.

Substrate in data set [7]: C[C@]12CC[C@H]3[C@@H](CCC4=CC(=O)CC[C@@]43C)[C@@H]1CC[C@@H]2O
Description: purified protein. The note with it: pH 8.5; 25.0 °C.

Substrate in data set [8]: CCCCC[C@@H](O)CC(=O)SCCNC(=O)CCNC(=O)[C@H](O)C(C)(C)COP(=O)(O)OP(=O)(O)OC[C@H]1O[C@@H](n2cnc3c(N)ncnc32)[C@H](O)[C@@H]1OP(=O)(O)O
Description: purified protein. The settings on record: pH 8.5; 25.0 °C.

Substrate in data set [9]: NC(=O)C1=CN([C@@H]2O[C@H](COP(=O)(O)OP(=O)(O)OC[C@H]3O[C@@H](n4cnc5c(N)ncnc54)[C@H](O)[C@@H]3O)[C@@H](O)[C@H]2O)C=CC1
Description: purified protein. The note with it: pH 8.5; 25.0 °C; varied: cofactor.

One may read the Km as the concentration of substrate that gives half-maximal velocity. The kcat/Km is the turnover number divided by the Michaelis constant.

For `NC(=O)c1ccc[n+]([C@@H]2O[C@H](COP(=O)(O)OP(=O)(O)OC[C@H]3O[C@@H](n4cnc5c(N)ncnc54)[C@H](O)[C@@H]3O)[C@@H](O)[C@H]2O)c1` [NAD^+], the “X-ray co-crystal structure, 2.21 Å” value on ChsB1 was “Co-crystallization of NAD^+ and ChsB1 yielded cubic crystals by sitting drop vapor diffusion”.

B1: ChsH3 (Mycobacterium tuberculosis H37Rv) (protein)
chain: MPIDLDVALGAQLPPVEFSWTSTDVQLYQLGLGAGSDPMNPRELSYLADDTPQVLPTFGNVAATFHLTTPPTVQFPGIDIELSKVLHASERVEVPAPLPPSGSARAVTRFTDIWDKGKAAVICSETTATTPDGLLLWTQKRSIYARGEGGFGGKRGPSGSDVAPERAPDLQVAMPILPQQALLYRLCGDRNPLHSDPEFAAAAGFPRPILHGLCTYGMTCKAIVDALLDSDATAVAGYGARFAGVAYPGETLTVNVWKDGRRLVASVVAPTRDNAVVLSGVELVPA
As to B1, the results for the Km in “purified protein [1]”, in the data set “purified protein [2]” and in “purified protein [3]” were 112 ± 12 µM, 55 ± 5 µM and 12 ± 6 µM, respectively. Moreover, the kcat/Km was 1.5e+06 M⁻¹ s⁻¹ in the data set “purified protein [1]”, 2e+06 M⁻¹ s⁻¹ in “purified protein [2]” and 120000 M⁻¹ s⁻¹ in “purified protein [3]”.

B2: ChsB1 (Mycobacterium tuberculosis H37Rv) (protein)
chain: MKLTESNRSPRTTNTTDLSGKVAVVTGAAAGLGRAEALGLARLGATVVVNDVASALDASDVVDEIGAAAADAGAKAVAVAGDISQRATADELLASAVGLGGLDIVVNNAGITRDRMLFNMSDEEWDAVIAVHLRGHFLLTRNAAAYWRDKAKDAEGGSVFGRLVNTSSEAGLVGPVGQANYAAAKAGITALTLSAARALGRYGVCANVICPRARTAMTADVFGAAPDVEAGQIDPLSPQHVVSLVQFLASPAAAEVNGQVFIVYGPQVTLVSPPHMERRFSADGTSWDPTELTATLRDYFAGRDPEQSFSATDLMRQ
As for B2, the Km in the data set “purified protein [4]” is 5.3 ± 1 µM; in “purified protein [5]” it was 25 ± 5 µM; in “purified protein [6]”, 70 ± 10 µM; in the data set “purified protein [7]” it was 369 ± 75 µM; in the data set “purified protein [8]” it was 169 ± 21 µM; in the data set “purified protein [9]”, 40 ± 6 µM. Besides, the kcat/Km in the data set “purified protein [4]” was found to be 1.7e+06 M⁻¹ s⁻¹; in the data set “purified protein [5]”, 64000 M⁻¹ s⁻¹; in “purified protein [7]”, 810 M⁻¹ s⁻¹; in “purified protein [8]” it was 15000 M⁻¹ s⁻¹.
